Reference: patent US20030022261A1 (SALK INSTITUTE FOR BIOLOGICAL STUDIES, published 2003)

Target: T1, papain (immobilised, papain affinity chromatography) (UniProt P00784 134-345)
T1 sequence (looked up): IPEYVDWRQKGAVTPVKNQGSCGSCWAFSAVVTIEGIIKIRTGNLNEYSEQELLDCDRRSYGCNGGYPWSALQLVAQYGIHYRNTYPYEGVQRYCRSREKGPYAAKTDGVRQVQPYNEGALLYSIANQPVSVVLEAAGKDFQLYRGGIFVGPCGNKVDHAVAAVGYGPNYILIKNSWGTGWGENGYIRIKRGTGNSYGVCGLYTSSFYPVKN
Assay: papain affinity chromatography (retention on immobilised papain during purification)

- binding result: binds
B1: glycosylated cystatin C (CCg), 21 kDa protein purified from conditioned medium of adult rat hippocampus-derived neural progenitor cells (other, UniProt P14841 21-140, looked up)
chain: GTSRPPPRLLGAPQEADASEEGVQRALDFAVSEYNKGSNDAYHSRAIQVVRARKQLVAGINYYLDVEMGRTTCTKSQTNLTNCPFHDQPHLMRKALCSFQIYSVPWKGTHTLTKSSCKNA
modifications: N-linked carbohydrate moiety of approximately 2.4 kDa (about 15 hexose residues) at the N-glycosylation site (Asn79-X-Thr); carbohydrate moiety of 0.3 kDa at the O-glycosylation site (Ser3)
notes: mature; also called glycosylated form of cystatin C; stem cell glycocystatin C
